Test results: a protein production outcome set (Wang et al. 2014)

Experiment: label from the status in PepcDB records

Sequence | protein production
MMNDSKARYGSITRFFHWSMAILVSWQFLKFFDRINDGEHWVGETLVPWHISIGSLILVLIVLRLGWTVKEKGNRPEHGSIIGVLAKIGHGLLYVALVLMPVTGIFYMVGNGYGLSAFNLEIIAKGEEVSWLINIGSLHSYIAWGLLFLVAGHIGMAFVHQFIIKDGTLKRMM | failed
MMNTSDNHALGDFLRARRQRLDPATFGFPAGRRRTPGLRREEVAQLASISPTWYTWLEQGRGGAPSREVLERIARGLRLTTPEREHLFILAFGHPPQTRLTVTDDMTPRLQRVLDAFTIPAIIRTASW | failed
MMPLILSNTGEEVVIKKISGSDKTRTFLNSIGFVVGTNVKIVSKIDGNLIIDVKDTRVALDKKMASRIIILEHHHHHH | failed
MMPRLFLLAGLVSAPPLSLDPEPPSSIKMTYSGIVDAGSTGTRLNIYGFLDGEIRHQGLFTNTSRLASIEDDEEIKTSIRELFAHAEPFYSNIKKMPIGFYGTAGFRTLDKSRSDHVLDLIRSELKDYNLKEAEVINGVDEGKLALMALVLSNRGTDAGHRSLGIVDMGGGSTQISLLERDGKVISESIDLGITVLSLSDPDECKIEGDAEQESCASHIASKLAGVAIRPFLNSVDDLYLLSYFHDEFGKVIRSEKTSMREVKDEFYKRCNLLESHECRRLFYLISFIKSLGIEDTKAIHQIDTNNGINITWASGKGYELNKKYN | failed
MMRHSSLRLIIGGLILLLFVLNVFSKEQGSHSHKRSHSAKRFSRDSNSARERRPNIILILTDDQDVELGSLNFMPRTLRLLRDGGAEFRHAYTTTPMCCPARSSLLTGMYVHNHMVFTNNDNCSSPQWQATHETRSYATYLSNAGYRTGYFGKYLNKYNGSYIPPGWREWGGLIMNSKYYNYSINLNGQKIKHGFDYAKDYYPDLIANDSIAFLRSSKQQNQRKPVLLTMSFPAPHGPEDSAPQYSHLFFNVTTHHTPSYDHAPNPDKQWILRVTEPMQPVHKRFTNLLMTKRLQTLQSVDVAVERVYNELKELGELDNTYIVYTSDHGYHLGQFGLIKGKSFPFEFDVRVPFLIRGPGIQASKVVNEIVLNVDLAPTFLDMGGVPTPQHMDGRSILPLLLSRNRAVRDNWPDSFLIESSGRRETAEQIAESRARLQIERRNMKLANSSLLEDFLEGAGESTTIVSSSSTAATLMSSTAQQPEDGEEEVETDNEEDDVDGDGAMDSSAAALEEDDLDDAAFEEGDEELDQEFQQNNDLPLAPYITKMMRLNSECSDPALLKNCLPGQKWKCVNEEGRWRKHKCKFHLQLEHQLAAMPRKQYQRNCACFTPDGVVYTKIRAPSAGLHRVNKRTHNGPGRRRNKREVFHTELPDEMEELLDLHQVVDQLVDHTHRSKRDLPASSNETIAQVIQQIQSTLEILELKFNEHELHASNSSGNSYERGEKYTKSGGHRCFVDATTAKVNCSNVIYDDEKTWRTSRTQIDMLIKLLKDKIGKLKEMKKQLRESNKQALAAGRRNDNRRRNDQSVLDSGAGPEFNMSYFTEISSTPRSNVVGQTEVFQGYGSASAFDSLEQTQSHRFTPRAECYCEPDVGENHADSKEMAREARRKLKEERQRKKERKRIKKARLEKECLSEKMNCFSHDNQHWRTAPLWNDSPFCFCMNANNNTYSCLRTINGTHNFLYCEFTTGLITFYNLTIDRFETINRAAGLTPGERSHMHDALDQLKSCRGRSCSIRRHQNHLEGGSSAPLLPINQVHRNNKRKHSPLAGAVGNYAFVGPRLDMEALPPIKRRKLSKYNRLTGSQQSHMKRRPWKQTPLQQSPRFLRTHSVTPAQA | failed
MMRKHFLSRSSLRAIVLCVSLGTLSAQAVSVPNAIAQSSLPASPLDSFYSSIPSGENTVAGTVLSEQVIPTGLLDATIKVKRIAYSSTHPSGRMVPTIATILTPTAPWTGSGPRPAALLAPGTQGAGDQCAPSKLITVGAEYELFPAIMLLRRGWTVAITDYQGLGTIGAHTYMNRKAQGAALLDLGRAVVNVKYPEVRKDAPLILWGYSQGGGASAAAAEMHASYAPDVNIRGGFAGGVPAELLATARSLEGSPLLGALGYAISGMYETHPELRLEVDDLLNDRGKQWIIDSGTHCLLDSFRTMPIPDSRVMTRSGQRLTDLLGSKVFHSYFEEQRLGKVAPDVPMFVSQGANDDIIPAQQARDMVSNWRDLGADVTYFEDPAPLLVRMEGHVRPLVTSFDPALQWAEKLLGSEVINPPSAS | failed
MMRRQRDEQQSRVFYDLSSLVLNLLRSPPMPISLPDHFPDPPARIRPPFSSHRFSSSSPSLAHISPSGFASLLLGISVALMLCGSVTFFIGFLLMPWVLALILVFYVAGIVSAISMVGRSILCYVLTPPSPSGKEISEWKLL | failed
